According to US20240034762A1 (YALE UNIVERSITY, published 2024):
No end group written: not given here.

How the values were obtained:
[1] = biological target: T1, soluble extracellular domain of human α-Klotho (aa 1-980) fused to a 6xHis tag (human, UniProt Q9UEF7 34-980); assay: BLI; FLAG-tagged FGF23 captured by anti-FLAG M2 on anti-mouse Fc sensors, sKLA 6.25-200 nM as analyte, 1:1 fit
T1 construct: Secreted from HEK293 EBNA cells; also called sKLA; soluble α-Klotho
T1 sequence: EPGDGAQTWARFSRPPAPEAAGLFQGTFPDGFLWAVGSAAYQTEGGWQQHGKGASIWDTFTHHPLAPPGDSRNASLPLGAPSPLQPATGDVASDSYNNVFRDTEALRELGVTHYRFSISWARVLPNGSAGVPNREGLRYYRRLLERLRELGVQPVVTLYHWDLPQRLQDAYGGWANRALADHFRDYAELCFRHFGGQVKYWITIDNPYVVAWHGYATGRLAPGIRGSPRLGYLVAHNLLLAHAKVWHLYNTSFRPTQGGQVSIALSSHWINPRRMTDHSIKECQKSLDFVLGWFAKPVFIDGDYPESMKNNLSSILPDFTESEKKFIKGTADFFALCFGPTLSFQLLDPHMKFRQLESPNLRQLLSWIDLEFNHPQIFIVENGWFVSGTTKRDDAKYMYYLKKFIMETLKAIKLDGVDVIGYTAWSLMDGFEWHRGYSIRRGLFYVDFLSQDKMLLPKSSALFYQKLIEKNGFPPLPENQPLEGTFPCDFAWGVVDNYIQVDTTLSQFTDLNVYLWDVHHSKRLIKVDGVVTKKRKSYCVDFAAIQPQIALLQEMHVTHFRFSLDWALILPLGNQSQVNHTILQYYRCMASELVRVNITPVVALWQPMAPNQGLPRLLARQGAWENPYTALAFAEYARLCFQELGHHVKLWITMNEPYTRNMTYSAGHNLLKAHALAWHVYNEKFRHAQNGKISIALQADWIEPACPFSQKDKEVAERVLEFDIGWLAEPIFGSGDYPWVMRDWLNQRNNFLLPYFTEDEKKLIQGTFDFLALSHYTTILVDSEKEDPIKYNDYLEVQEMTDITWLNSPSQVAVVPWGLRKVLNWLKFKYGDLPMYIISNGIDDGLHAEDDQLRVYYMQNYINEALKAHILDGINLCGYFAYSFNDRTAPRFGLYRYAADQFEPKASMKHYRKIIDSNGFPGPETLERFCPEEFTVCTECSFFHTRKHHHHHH
Protocol: FIG. 10A: BLI sensorgrams of binding of FGF23-WT, FGF23-CS, FGF23 D188A, and FGF23-CS D188A to sKLA. Biosensors coated with anti-mouse-Fc antibody was used to immobilize anti-Flag antibody followed by capturing Flag-tagged FGF23-WT or FGF23-CS. Biosensors were then dipped into solutions containing a series of concentrations of sKLA (200, 100, 50, 25, 12.5, and 6.25 nM). The resulting sensorgrams were fitted with a 1:1 ligand:receptor binding model to calculate kinetic parameters and dissociation constants. FIGS. 10B-10C: HEK293 cells stably expressing FGFR1c together with α-Klotho were left unstimulated or stimulated with increasing concentrations of FGF23-WT or FGF23-CS mutant, as indicated, for 10 minutes at 37° C. Cell lysates were subjected to SDS-PAGE and analyzed for serine phosphorylation of FGFR1, tyrosine phosphorylation of FRS2 and for MAPK activation by immunoblotting with anti-FGFR1-pS, anti-pFRS2 and anti-pMAPK antibodies, respectively and with anti-MAPK as a control. FIG. 10D: Schematic diagram depicting the bivalency of the C-terminal tail of FGF23 binding to α-Klotho.
Kinetic parameters and dissociation constants of sKLA binding to the various forms of full length FGF23 or GST-fused C-terminal fragments of FGF23 were studied using Bio-Layer Interferometry (BLI). Octet RED96 system (Pall ForteBio) equipped with anti-mouse IgG Fc (AMC) biosensors was used to study interactions between α-Klotho and FLAG-tagged FGF23. Biosensor tips were loaded with anti-FLAG M2 antibody (Millipore Sigma) at 5 μg/ml for 2 min, washed in BLI buffer (25 mM HEPES, 150 mM NaCl, pH 7.5, 0.002% Tween-20, 1 mg/mL BSA) for 60 s, and then loaded with FLAG-tagged FGF23 at 5 μg/ml for 4 min. Alternatively, anti-GST biosensor tips were loaded with 5 ug/ml GST fused with various FGF23 C-terminal fragments for 15 s. Subsequently, ligand-loaded sensor tips were dipped into microplate wells containing different sKLA concentrations, ranging from 6.25 nM to 200 nM in 2-fold dilutions of BLI buffer. After each binding cycle the sensor tips were regenerated with 10 mM glycine (pH 1.5). The collected data were referenced using a parallel buffer control subtraction, and sensograms were fitted globally to a 1:1 Langmuir binding model using ForteBio Data Analysis 10.0 software provided by the manufacturer.

[2] = biological target: T2, full-length human α-Klotho with a C-terminal HA-tag on HEK293 cells stably co-expressing FGFR1c (human, UniProt Q9UEF7 34-1012); assay: cell-based or functional assay
T2 sequence: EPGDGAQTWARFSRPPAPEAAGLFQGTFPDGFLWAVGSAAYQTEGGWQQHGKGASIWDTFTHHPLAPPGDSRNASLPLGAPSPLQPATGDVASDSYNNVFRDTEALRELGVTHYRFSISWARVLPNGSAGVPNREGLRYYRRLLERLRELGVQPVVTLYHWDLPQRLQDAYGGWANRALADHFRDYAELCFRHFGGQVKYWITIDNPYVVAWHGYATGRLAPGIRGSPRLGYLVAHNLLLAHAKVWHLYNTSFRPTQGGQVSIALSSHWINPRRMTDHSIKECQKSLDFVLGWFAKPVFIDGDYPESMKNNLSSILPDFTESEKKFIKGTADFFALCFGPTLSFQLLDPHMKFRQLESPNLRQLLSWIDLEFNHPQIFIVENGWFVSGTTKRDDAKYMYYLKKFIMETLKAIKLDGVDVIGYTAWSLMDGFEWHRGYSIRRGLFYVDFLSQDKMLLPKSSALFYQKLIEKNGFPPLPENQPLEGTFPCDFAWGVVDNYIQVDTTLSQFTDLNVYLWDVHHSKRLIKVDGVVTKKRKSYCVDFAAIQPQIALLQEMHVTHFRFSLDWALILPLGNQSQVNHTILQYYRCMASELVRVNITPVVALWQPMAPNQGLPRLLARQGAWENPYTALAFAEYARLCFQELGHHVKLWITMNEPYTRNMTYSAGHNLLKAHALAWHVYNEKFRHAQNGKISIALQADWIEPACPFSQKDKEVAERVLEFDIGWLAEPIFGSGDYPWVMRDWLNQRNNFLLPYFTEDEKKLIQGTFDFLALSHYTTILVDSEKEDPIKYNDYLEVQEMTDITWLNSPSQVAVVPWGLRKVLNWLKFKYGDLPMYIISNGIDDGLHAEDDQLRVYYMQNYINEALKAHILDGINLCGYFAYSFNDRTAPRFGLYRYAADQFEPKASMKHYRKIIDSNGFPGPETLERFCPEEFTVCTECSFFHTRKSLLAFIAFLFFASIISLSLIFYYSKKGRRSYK

[3] = biological target: T3, full-length human α-Klotho with a C-terminal HA-tag on HEK293 cells stably co-expressing FGFR1c (human) (UniProt Q9UEF7); assay: cell-based or functional assay
T3 sequence: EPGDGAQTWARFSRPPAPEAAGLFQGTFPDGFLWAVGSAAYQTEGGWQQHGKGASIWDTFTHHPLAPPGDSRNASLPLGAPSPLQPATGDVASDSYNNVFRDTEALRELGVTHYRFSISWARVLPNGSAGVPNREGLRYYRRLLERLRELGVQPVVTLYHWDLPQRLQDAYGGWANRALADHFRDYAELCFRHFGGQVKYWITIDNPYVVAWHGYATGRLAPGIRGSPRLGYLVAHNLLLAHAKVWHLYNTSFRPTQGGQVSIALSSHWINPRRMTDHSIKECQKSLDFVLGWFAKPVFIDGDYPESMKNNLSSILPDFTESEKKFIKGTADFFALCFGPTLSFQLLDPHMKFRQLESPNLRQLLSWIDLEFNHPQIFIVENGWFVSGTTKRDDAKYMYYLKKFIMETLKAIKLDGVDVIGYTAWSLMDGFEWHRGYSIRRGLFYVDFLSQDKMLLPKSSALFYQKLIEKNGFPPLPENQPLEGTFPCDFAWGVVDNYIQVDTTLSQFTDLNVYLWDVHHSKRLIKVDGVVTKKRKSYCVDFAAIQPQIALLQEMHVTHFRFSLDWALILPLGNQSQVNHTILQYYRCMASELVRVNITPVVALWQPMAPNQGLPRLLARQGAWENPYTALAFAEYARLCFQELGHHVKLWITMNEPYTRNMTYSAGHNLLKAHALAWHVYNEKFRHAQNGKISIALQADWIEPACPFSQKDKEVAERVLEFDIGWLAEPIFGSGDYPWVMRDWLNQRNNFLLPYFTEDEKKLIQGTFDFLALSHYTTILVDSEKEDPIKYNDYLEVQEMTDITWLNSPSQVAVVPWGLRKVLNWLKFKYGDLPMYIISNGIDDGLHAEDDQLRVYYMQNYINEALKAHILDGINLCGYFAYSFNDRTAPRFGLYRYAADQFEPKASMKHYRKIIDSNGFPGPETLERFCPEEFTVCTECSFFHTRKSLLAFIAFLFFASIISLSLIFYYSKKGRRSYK

Binder	Kd [1] [nM]	koff [1] [s⁻¹]	kon [1] [M⁻¹ s⁻¹]	activation of MAPK response in HEK293 cells co-expressing FGFR1c and α-Klotho; ligand concentration at saturation [2] [nM]	complete inhibition of FGF23-induced MAPK stimulation in HEK293 cells co-expressing α-Klotho and FGFR1c [3] [nM]
FLAG-tagged human FGF23 D188A mutant expressed in Expi293F cells (ligand) DYKDDDDKYPNASPLLGSSWGGLIHLYTATARNSYHLQIHKNGHVDGAPHQTIYSALMIRSEDAGFVVITGVMSRRYLCMDFRGNIFGSHYFDPENCRFQHQTLENGYDVYHSPQYHFLVSLGAAKAAFLPGMNPPPYSQFLSRRNEIPLIHFNTPIPRQHTQSAEDDSERAPLNVLKPRARMTPAPASCSQELPSAEDNSPMASDPLGVVRGGRVNTHAGGTGPEGCRPFAKFI	13	0.0036	280000		
FLAG-tagged human FGF23 (aa 25-251) expressed in Expi293F cells (ligand, O-linked glycosylation (sites not given); Cys206-Cys244 disulfide bridge, also called FGF23-WT; mFGF23-WT) DYKDDDDKYPNASPLLGSSWGGLIHLYTATARNSYHLQIHKNGHVDGAPHQTIYSALMIRSEDAGFVVITGVMSRRYLCMDFRGNIFGSHYFDPENCRFQHQTLENGYDVYHSPQYHFLVSLGAAKAAFLPGMNPPPYSQFLSRRNEIPLIHFNTPIPRQHTQSAEDDSERDPLNVLKPRARMTPAPASCSQELPSAEDNSPMASDPLGVVRGGRVNTHAGGTGPEGCRPFAKFI	14	0.0034	260000		
FLAG-tagged human FGF23 C206S/C244S mutant expressed in Expi293F cells (ligand, O-linked glycosylation (sites not given), also called FGF23-CS; mFGF23-CS) DYKDDDDKYPNASPLLGSSWGGLIHLYTATARNSYHLQIHKNGHVDGAPHQTIYSALMIRSEDAGFVVITGVMSRRYLCMDFRGNIFGSHYFDPENCRFQHQTLENGYDVYHSPQYHFLVSLGAAKAAFLPGMNPPPYSQFLSRRNEIPLIHFNTPIPRQHTQSAEDDSERDPLNVLKPRARMTPAPASSSQELPSAEDNSPMASDPLGVVRGGRVNTHAGGTGPEGSRPFAKFI	18	0.0042	230000		
FLAG-tagged human FGF23 C206S/C244S/D188A mutant expressed in Expi293F cells (ligand, also called FGF23-CS D188A) DYKDDDDKYPNASPLLGSSWGGLIHLYTATARNSYHLQIHKNGHVDGAPHQTIYSALMIRSEDAGFVVITGVMSRRYLCMDFRGNIFGSHYFDPENCRFQHQTLENGYDVYHSPQYHFLVSLGAAKAAFLPGMNPPPYSQFLSRRNEIPLIHFNTPIPRQHTQSAEDDSERAPLNVLKPRARMTPAPASSSQELPSAEDNSPMASDPLGVVRGGRVNTHAGGTGPEGSRPFAKFI	18	0.0044	250000		
full length human FGF23 (aa 25-251) expressed in E. coli (ligand) YPNASPLLGSSWGGLIHLYTATARNSYHLQIHKNGHVDGAPHQTIYSALMIRSEDAGFVVITGVMSRRYLCMDFRGNIFGSHYFDPENCRFQHQTLENGYDVYHSPQYHFLVSLGAAKAAFLPGMNPPPYSQFLSRRNEIPLIHFNTPIPRQHTQSAEDDSERDPLNVLKPRARMTPAPASCSQELPSAEDNSPMASDPLGVVRGGRVNTHAGGTGPEGCRPFAKFI				0.1	
{human IgG1 Fc (aa 223-449)}-SAEDNSPMASDPLGVVRGGRVNTHAGGTGPEG (Fc fusion, not shown: a dimerising Fc or GST, also: R2 given as aa 212-243 or S212-T239) [human IgG1 Fc fused to R2 of human FGF23]					100 to 250
